Data published in PMC3417418 (2012).
Changes are numbered by the printed parent chain.

Columns and labels:
CXCR3 [1] = molecular target: T1, CXCR3 (Homo sapiens, UniProt P49682); assay: competition with 125I-CXCL11 on L1.2 cells
T1 chain: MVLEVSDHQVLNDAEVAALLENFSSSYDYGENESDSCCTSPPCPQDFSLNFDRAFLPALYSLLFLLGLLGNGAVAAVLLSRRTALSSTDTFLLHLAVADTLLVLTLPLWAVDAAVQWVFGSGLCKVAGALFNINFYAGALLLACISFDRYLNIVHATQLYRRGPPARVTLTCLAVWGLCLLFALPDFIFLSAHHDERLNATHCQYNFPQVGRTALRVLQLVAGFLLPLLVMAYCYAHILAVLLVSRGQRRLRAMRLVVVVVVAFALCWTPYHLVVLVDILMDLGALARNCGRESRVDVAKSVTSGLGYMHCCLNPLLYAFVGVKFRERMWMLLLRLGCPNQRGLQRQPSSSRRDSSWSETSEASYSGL

CXCR3 [2] = molecular target: T1, CXCR3; assay: competition with 125I-CXCL10 on L1.2 cells
CXCR3 [3] = molecular target: T2, CXCR3 (Homo sapiens, UniProt P49682); assay: homologous competition 125I radioligand binding on L1.2 cells
T2 chain: T1 chain with D112N

CXCR3 [4] = molecular target: T3, CXCR3 (Homo sapiens, UniProt P49682); assay: as above
T3 chain: T1 chain with D297N

CXCR3 [5] = molecular target: T4, CXCR3 (Homo sapiens, UniProt P49682); assay: as above
T4 chain: T1 chain with D278N

CXCR3 [6] = molecular target: T5, CXCR3 (Homo sapiens, UniProt P49682); assay: as above
T5 chain: T1 chain with D282N

CXCR3 [7] = molecular target: T6, CXCR3 (Homo sapiens, UniProt P49682); assay: as above
T6 chain: T1 chain with D195N

CXCR3 [8] = molecular target: T7, CXCR3 (Homo sapiens, UniProt P49682); assay: as above
T7 chain: T1 chain with E196Q

B1: CXCL11 (protein)
chain: FPMFKRGRCLCIGPGVKAVKVADIEKASIMYPSNNCDKIEVIITLKENKGQRCLNPKSKQARLIIKKVERKNF
B1 gave an IC50 (CXCR3 [1]) of 1.2 nM, an IC50 (CXCR3 [2]) of 0.4 nM and a Kd (CXCR3 [3]) of 3.8 nM. It also gave a Kd (CXCR3 [4]) of 26.3 nM, a Kd (CXCR3 [5]) of 2.6 nM and a Kd (CXCR3 [6]) of 1.4 nM. It also gave a Kd (CXCR3 [7]) of 16 nM and a Kd (CXCR3 [8]) of 0.4 nM.
